Reference: PMC3695512, “Recognition of two distinct elements in the RNA substrate by the RNA-binding domain of the T. thermophilus DEAD box helicase Hera”

Key:
Hera_RBD [1] = target: T1, Hera_RBD (Thermus thermophilus, UniProt O07897 424-510); experiment: NMR; pH 6.0, 50 mM NaCl, 37 C; Anisotropy: 50 mM Tris/HCl pH 7.5, 150 mM NaCl, 5 mM MgCl2 (Fig 2), 25 C, 50 nM RNA; EMSA: same Tris/NaCl, 12% glycerol, 25 C; NMR: 25 mM Bis-Tris/HCl pH 6.0, 50 mM NaCl, 10% D2O, 37 C; settings: protein: recombinant
T1 sequence: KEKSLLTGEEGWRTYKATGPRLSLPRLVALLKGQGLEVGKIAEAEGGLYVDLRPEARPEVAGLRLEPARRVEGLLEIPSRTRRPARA

Hera_RBD [2] = target: T1, Hera_RBD; experiment: ITC; 5 mM Mg2+; estimate, no initial baseline; Anisotropy: 50 mM Tris/HCl pH 7.5, 150 mM NaCl, 5 mM MgCl2 (Fig 2), 25 C, 50 nM RNA; EMSA: same Tris/NaCl, 12% glycerol, 25 C; NMR: 25 mM Bis-Tris/HCl pH 6.0, 50 mM NaCl, 10% D2O, 37 C; settings: protein: recombinant; label: none (NMR, ITC); 5'-fluorescein (EMSA); hairpin with 5' single strand
GST-Hera_RBD = target: T2, GST-Hera_RBD (Thermus thermophilus, UniProt O07897 424-510); experiment: EMSA; 6 uM RNA; 12% glycerol; Anisotropy: 50 mM Tris/HCl pH 7.5, 150 mM NaCl, 5 mM MgCl2 (Fig 2), 25 C, 50 nM RNA; EMSA: same Tris/NaCl, 12% glycerol, 25 C; NMR: 25 mM Bis-Tris/HCl pH 6.0, 50 mM NaCl, 10% D2O, 37 C; settings: protein: recombinant; tags: N-terminal GST; label: none (NMR, ITC); 5'-fluorescein (EMSA); hairpin with 5' single strand
T2 sequence: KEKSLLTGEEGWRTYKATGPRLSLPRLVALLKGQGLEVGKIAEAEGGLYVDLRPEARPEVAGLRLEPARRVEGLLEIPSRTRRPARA

Hera_RBD [3] = target: T1, Hera_RBD; experiment: NMR; Kd1, RBD core resonances (424-493); Anisotropy: 50 mM Tris/HCl pH 7.5, 150 mM NaCl, 5 mM MgCl2 (Fig 2), 25 C, 50 nM RNA; EMSA: same Tris/NaCl, 12% glycerol, 25 C; NMR: 25 mM Bis-Tris/HCl pH 6.0, 50 mM NaCl, 10% D2O, 37 C; settings: protein: recombinant; hairpin with 5' single strand
Hera_RBD [4] = target: T1, Hera_RBD; experiment: NMR; core CSPs, none in C-tail; Anisotropy: 50 mM Tris/HCl pH 7.5, 150 mM NaCl, 5 mM MgCl2 (Fig 2), 25 C, 50 nM RNA; EMSA: same Tris/NaCl, 12% glycerol, 25 C; NMR: 25 mM Bis-Tris/HCl pH 6.0, 50 mM NaCl, 10% D2O, 37 C; settings: protein: recombinant
Hera_RBD [5] = target: T1, Hera_RBD; experiment: NMR; CSP pattern similar to 21mer; Anisotropy: 50 mM Tris/HCl pH 7.5, 150 mM NaCl, 5 mM MgCl2 (Fig 2), 25 C, 50 nM RNA; EMSA: same Tris/NaCl, 12% glycerol, 25 C; NMR: 25 mM Bis-Tris/HCl pH 6.0, 50 mM NaCl, 10% D2O, 37 C; settings: protein: recombinant; hairpin with 5' single strand
Hera full-length = target: T3, Hera full-length (Thermus thermophilus, UniProt O07897 1-510); experiment: fluorescence anisotropy; 1 uM Hera; complex forms instantaneously; Anisotropy: 50 mM Tris/HCl pH 7.5, 150 mM NaCl, 5 mM MgCl2 (Fig 2), 25 C, 50 nM RNA; EMSA: same Tris/NaCl, 12% glycerol, 25 C; NMR: 25 mM Bis-Tris/HCl pH 6.0, 50 mM NaCl, 10% D2O, 37 C; settings: protein: recombinant; chain copies: 2; label: 3'-fluorescein on 9mer; 9 bp duplex (strand 1 nt 3-11) plus 3' hairpin; 5' overhang 2 nt
T3 sequence: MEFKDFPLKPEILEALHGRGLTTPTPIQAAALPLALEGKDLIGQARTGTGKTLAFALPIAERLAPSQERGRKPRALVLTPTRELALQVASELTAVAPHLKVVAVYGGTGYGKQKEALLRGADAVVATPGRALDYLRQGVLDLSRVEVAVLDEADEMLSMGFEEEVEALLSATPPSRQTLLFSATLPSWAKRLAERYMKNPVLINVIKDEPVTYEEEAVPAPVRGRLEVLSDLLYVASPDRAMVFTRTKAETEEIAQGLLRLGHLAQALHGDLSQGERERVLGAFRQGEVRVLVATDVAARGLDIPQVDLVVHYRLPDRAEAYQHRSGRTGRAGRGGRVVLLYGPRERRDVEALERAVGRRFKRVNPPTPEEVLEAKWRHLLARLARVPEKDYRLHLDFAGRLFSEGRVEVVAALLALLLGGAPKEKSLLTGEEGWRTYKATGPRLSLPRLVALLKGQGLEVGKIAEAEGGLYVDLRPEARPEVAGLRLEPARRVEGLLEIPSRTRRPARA

Hera_RBD [6] = target: T1, Hera_RBD; experiment: fluorescence anisotropy; Anisotropy: 50 mM Tris/HCl pH 7.5, 150 mM NaCl, 5 mM MgCl2 (Fig 2), 25 C, 50 nM RNA; EMSA: same Tris/NaCl, 12% glycerol, 25 C; NMR: 25 mM Bis-Tris/HCl pH 6.0, 50 mM NaCl, 10% D2O, 37 C; settings: protein: recombinant; label: 5'-fluorescein
Hera_RBD_dC-tail = target: T4, Hera_RBD_dC-tail (Thermus thermophilus, UniProt O07897 424-491, del492-510); experiment: as above; settings: protein: recombinant; label: 5'-fluorescein
T4 sequence: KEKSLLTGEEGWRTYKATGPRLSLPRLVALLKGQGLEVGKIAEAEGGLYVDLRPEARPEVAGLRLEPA

GGGUUGGGCUGUUCGCCCAUU (structured_RNA) [21mer]
Kd (Hera_RBD [1]; label: none (NMR, ITC), 5'-fluorescein (EMSA), hairpin with 5' single strand): ~6 µM | Kd (Hera_RBD [2]): ~40 µM | Kd (GST-Hera_RBD): ~23 µM

GUUGGGCUGUUCGCCCAUU (structured_RNA) [19mer]
Kd (Hera_RBD [1]; hairpin): ~75 µM

CACUUGGGCUGUUCGCCCAUU (structured_RNA) [21mer_mod]
Kd (Hera_RBD [3]): ~52.9 µM

GGGCC (ssRNA) [5mer]
binding result (Hera_RBD [4]): binds

GGGUUGGGCUAUUCGCCCAUU (structured_RNA) [21mer_modloop]
binding result (Hera_RBD [5]): binds

B1: 32/9mer (mixed)
RNA 1: GCAGGUCCCAAGGGUUGGGCUGUUCGCCCAUU
RNA 2: UUGGGACCU
binding result (Hera full-length): binds

GGGC (ssRNA) [4mer]
Kd (Hera_RBD [6]): 11 µM | Kd (Hera_RBD_dC-tail): 8 µM
